Data taken from PMC5493754, “Myosin 7 and its adaptors link cadherins to actin” (Nature Communications, 2017).
Blank lines part the entries; values can stand above or below the binder they belong to.

B4: SANS_(CEN-PBM) (domain or fragment, UniProt Q495M9 300-461, looked up)
chain: DSGHDSLFTRPGLGTMVFRRNYLSSGLHGLGREDGGLDGVGAPRGRLQSSPSLDDDSLGSANSLQDRSCGEELPWDELDLGLDEDLEPETSPLETFLASLHMEDFAALLRQEKIDLEALMLCSDLDLRSISVPLGPRKKILGAVRRRRQAMERPPALEDTEL
notes: source: E. coli (BL21-AI, BL21 (DE3) Rosetta or BL21-Gold (DE3)), purified (Histrap, CaptoQ, gel filtration)

Tests used:
Myosin 7b MF1.SH3 = biological target: T1, Myosin 7b MF1.SH3 (human, UniProt Q6PIF6 958-1586); experiment: MST; YFP-fused partner held together with a third protein (saturating concentrations; competition experiments), non-fluorescent protein titrated; conditions: both partners purified
T1 construct: also called M7b MF1.SH3; Myo7b MF1.SH3; source: E. coli (BL21-AI, BL21 (DE3) Rosetta or BL21-Gold (DE3)), purified (Histrap, CaptoQ, gel filtration)
T1 sequence: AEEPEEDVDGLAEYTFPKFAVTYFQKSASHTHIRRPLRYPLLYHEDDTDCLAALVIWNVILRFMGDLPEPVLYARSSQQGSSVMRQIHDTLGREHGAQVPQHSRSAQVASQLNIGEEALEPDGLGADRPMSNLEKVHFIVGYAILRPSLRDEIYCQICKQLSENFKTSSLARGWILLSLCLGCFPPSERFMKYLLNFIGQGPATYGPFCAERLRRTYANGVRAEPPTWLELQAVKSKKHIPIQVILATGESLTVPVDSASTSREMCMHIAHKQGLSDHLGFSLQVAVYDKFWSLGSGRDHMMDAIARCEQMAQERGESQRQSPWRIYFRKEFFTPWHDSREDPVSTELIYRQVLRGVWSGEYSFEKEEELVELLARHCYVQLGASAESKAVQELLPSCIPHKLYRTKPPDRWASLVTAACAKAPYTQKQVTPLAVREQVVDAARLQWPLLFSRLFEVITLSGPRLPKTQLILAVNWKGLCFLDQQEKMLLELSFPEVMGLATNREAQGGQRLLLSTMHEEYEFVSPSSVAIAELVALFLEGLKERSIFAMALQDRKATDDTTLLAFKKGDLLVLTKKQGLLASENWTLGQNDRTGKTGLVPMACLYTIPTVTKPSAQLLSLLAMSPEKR

Myosin 7a MF1.SH3 [1] = biological target: T2, Myosin 7a MF1.SH3 (human, UniProt Q13402-1 991-1692, residues 1523-1560 were deleted from MF1); experiment: as above; conditions: both partners purified
T2 construct: Myosin 7a, human, N-terminal MyTH4-FERM domain and SH3, residues 991-1692 of UniProt Q13402-1; residues 1523-1560 deleted; Thrombin site of the vector replaced by an SSG linker; also called M7a MF1.SH3; Myo7a MF1.SH3; source: E. coli (BL21-AI, BL21 (DE3) Rosetta or BL21-Gold (DE3)), purified (Histrap, CaptoQ, gel filtration)
T2 sequence (looked up): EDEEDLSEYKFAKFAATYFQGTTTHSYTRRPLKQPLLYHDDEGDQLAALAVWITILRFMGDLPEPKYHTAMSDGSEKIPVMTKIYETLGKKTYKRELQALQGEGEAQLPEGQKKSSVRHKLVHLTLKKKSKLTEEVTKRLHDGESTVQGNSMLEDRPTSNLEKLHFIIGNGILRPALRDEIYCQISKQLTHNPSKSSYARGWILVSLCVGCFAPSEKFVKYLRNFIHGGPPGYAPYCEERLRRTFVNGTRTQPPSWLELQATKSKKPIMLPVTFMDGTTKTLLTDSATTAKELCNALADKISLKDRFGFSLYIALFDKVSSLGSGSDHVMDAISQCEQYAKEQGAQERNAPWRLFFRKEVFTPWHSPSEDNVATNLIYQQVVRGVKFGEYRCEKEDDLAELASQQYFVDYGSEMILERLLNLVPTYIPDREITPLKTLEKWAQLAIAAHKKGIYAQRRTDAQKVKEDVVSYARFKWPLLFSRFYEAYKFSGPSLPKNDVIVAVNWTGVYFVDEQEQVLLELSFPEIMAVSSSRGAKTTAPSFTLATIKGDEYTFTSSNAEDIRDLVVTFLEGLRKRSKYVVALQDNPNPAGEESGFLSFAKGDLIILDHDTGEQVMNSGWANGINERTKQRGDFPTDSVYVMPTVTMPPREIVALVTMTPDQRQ

YFP-Myosin 7b MF1.SH3 = biological target: T3, YFP-Myosin 7b MF1.SH3 (human, UniProt Q6PIF6 958-1586); experiment: MST; YFP-fused partner constant at 100 nM, non-fluorescent protein titrated (16 two-fold dilutions); 20 mM Hepes pH 7.0, 100 mM NaCl, 1 mM EGTA, 0.5 mM TCEP, 0.05% Tween 20; Monolith NT.115; conditions: both partners purified
T3 construct: Myosin 7b, human, MF1.SH3, residues 958-1586 of UniProt Q6PIF6; pET14-YFP vector; also called ^YFPM7b MF1.SH3; source: E. coli (BL21-AI, BL21 (DE3) Rosetta or BL21-Gold (DE3)), purified (Histrap, CaptoQ, gel filtration)
T3 sequence: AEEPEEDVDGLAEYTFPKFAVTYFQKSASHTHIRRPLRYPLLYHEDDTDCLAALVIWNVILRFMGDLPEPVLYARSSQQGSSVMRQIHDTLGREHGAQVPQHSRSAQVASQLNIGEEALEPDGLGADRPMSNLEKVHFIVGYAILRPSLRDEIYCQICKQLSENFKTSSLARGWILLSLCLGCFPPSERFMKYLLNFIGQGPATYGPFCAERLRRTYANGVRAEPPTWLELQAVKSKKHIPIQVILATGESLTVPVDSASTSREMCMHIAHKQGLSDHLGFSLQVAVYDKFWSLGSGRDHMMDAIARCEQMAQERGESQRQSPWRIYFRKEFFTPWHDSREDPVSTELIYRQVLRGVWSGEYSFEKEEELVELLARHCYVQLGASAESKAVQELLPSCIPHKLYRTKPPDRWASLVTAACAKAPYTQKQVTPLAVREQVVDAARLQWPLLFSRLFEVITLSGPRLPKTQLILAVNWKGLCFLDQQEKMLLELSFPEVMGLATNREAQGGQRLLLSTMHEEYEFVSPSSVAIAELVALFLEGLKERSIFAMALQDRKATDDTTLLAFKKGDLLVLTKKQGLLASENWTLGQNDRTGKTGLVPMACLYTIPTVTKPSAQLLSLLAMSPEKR

Myosin 7a MF1.SH3 [2] = biological target: T2, Myosin 7a MF1.SH3; experiment: SEC-MALS; Superdex 10/300 Increase; 20 mM Tris pH 7.0, 100 mM NaCl, 1 mM EGTA, 0.5 mM TCEP; samples at about 20 mg/ml; conditions: both partners purified
[3] = biological target: T4, YFP-Full length (FL)-harmonin (harmonin-a1) (human, UniProt Q9Y6N9-1 1-552); experiment: MST; as a1 but 150 mM NaCl (for FL-Harmonin-a); YFP-fused partner constant at 100 nM, non-fluorescent protein titrated; conditions: both partners purified
T4 construct: Harmonin-a1 (USH1C), human, residues 1-552 of UniProt Q9Y6N9-1; also called ^YFPFL (isoA); ^YFPFL; source: E. coli BL21 (DE3) Rosetta, purified (Glutathione Sepharose 4B, size-exclusion chromatography)
T4 sequence (looked up): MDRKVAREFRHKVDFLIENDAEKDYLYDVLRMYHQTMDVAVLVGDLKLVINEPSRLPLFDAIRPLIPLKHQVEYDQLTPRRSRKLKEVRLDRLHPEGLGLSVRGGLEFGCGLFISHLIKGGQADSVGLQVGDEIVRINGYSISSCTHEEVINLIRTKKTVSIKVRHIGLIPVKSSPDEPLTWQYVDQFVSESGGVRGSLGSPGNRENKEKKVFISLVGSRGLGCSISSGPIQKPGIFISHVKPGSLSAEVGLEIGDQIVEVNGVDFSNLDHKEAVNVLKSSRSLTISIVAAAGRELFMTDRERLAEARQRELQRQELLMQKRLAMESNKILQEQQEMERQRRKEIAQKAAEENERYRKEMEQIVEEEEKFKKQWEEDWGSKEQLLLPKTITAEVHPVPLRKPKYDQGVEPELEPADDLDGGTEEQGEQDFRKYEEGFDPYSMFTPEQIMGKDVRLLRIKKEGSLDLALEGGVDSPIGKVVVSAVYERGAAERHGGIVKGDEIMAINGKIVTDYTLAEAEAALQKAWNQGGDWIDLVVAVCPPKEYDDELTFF

SANS_(CEN-PBM) = biological target: B4; experiment: SEC-MALS; Superdex 10/300 Increase; 20 mM Tris pH 7.0, 100 mM NaCl, 1 mM EGTA, 0.5 mM TCEP; samples at about 20 mg/ml; conditions: both partners purified
Myo7a MF1.SH3 = biological target: T5, Myo7a MF1.SH3 (Mus musculus, UniProt P97479)
T5 chain: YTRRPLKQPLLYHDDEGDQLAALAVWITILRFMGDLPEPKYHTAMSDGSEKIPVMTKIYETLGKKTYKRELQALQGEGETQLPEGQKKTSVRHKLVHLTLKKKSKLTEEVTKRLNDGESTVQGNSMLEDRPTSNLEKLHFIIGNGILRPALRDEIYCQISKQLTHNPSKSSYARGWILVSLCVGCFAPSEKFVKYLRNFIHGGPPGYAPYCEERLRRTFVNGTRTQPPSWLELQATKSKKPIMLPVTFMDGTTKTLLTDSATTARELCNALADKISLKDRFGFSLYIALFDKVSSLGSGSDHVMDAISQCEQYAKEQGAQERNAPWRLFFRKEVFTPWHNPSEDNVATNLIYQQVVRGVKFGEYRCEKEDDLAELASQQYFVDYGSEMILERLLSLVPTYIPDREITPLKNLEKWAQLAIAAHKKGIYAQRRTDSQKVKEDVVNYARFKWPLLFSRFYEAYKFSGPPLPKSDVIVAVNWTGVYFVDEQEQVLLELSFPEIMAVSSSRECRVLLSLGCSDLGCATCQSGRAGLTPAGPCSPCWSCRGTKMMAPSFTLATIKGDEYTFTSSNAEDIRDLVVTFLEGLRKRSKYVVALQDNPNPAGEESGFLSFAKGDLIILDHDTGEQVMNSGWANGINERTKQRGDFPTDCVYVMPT

B3: ANKS4B_(CEN-PBM) (domain or fragment)
chain: SVHHESILNRPGLGSIVFRRNRISSPEDISDSKREFGFKLPSELLQRQGASEADEGAADEEGEENGLKDDLPWDDDEVEWEEDVVDATPLEVFLLSQHLEEFLPIFKREQIDLEALLLCSDEDLQSIQMQLGPRKKVLNAINRRKQVLQQPGQLVDTSL
notes: ANKS4B, human, residues 259-417 of UniProt Q8N8V4; source: E. coli (BL21-AI, BL21 (DE3) Rosetta or BL21-Gold (DE3)), purified (Histrap, CaptoQ, gel filtration)
Kd (YFP-Myosin 7b MF1.SH3): 2.9 ± 0.03 µM

Binder: B4
stoichiometry N (Myosin 7a MF1.SH3 [2]): 1

B6: ANKS4B CEN-PBM (protein)
chain: VEEDDDVQHESILNRPGLGSIVFSRNRVLDFEDISDSKRELGFKMPSELFQRQGAAGTVEEEEEEEEEEEEEKREANGTAGDLPWDEEEVEWEEDAVDATPLEVFLQSQHLEEFLPIFMREQIDLEALLLCSDEDLQNIHMQLGPRKKVLSAIDKRKQVLQQPGQLVDTSL
Kd (Myo7a MF1.SH3): ~5 µM

Other lines, results leading:

Kd (Myosin 7b MF1.SH3): 4 µM
B1: ANKS4B_(CEN-PBM) with YFP-harmonin NPDZ1.PDZ2 (complex)
chain 1: SVHHESILNRPGLGSIVFRRNRISSPEDISDSKREFGFKLPSELLQRQGASEADEGAADEEGEENGLKDDLPWDDDEVEWEEDVVDATPLEVFLLSQHLEEFLPIFKREQIDLEALLLCSDEDLQSIQMQLGPRKKVLNAINRRKQVLQQPGQLVDTSL
chain 2: MDRKVAREFRHKVDFLIENDAEKDYLYDVLRMYHQTMDVAVLVGDLKLVINEPSRLPLFDAIRPLIPLKHQVEYDQLTPRRSRKLKEVRLDRLHPEGLGLSVRGGLEFGCGLFISHLIKGGQADSVGLQVGDEIVRINGYSISSCTHEEVINLIRTKKTVSIKVRHIGLIPVKSSPDEPLTWQYVDQFVSESGGVRGSLGSPGNRENKEKKVFISLVGSRGLGCSISSGPIQKPGIFISHVKPGSLSAEVGLEIGDQIVEVNGVDFSNLDHKEAVNVLKSSRSLTISIVAAAGRELFMTDR
notes: ANKS4B, human, residues 259-417 of UniProt Q8N8V4; as m43; Harmonin-a1 (USH1C), human, residues 1-301 of UniProt Q9Y6N9-1; as m31; also called ANKS4b+^YFPNPDZ1.PDZ2; ^YFPNPDZ1.PDZ2+ANKS4B_(CEN-PBM); source: purified E. coli proteins mixed

Kd (Myosin 7a MF1.SH3 [1]): 0.386 µM
B2: YFP-SANS_(CEN-PBM) saturated with harmonin NPDZ1.PDZ2 (complex)
chain 1: DSGHDSLFTRPGLGTMVFRRNYLSSGLHGLGREDGGLDGVGAPRGRLQSSPSLDDDSLGSANSLQDRSCGEELPWDELDLGLDEDLEPETSPLETFLASLHMEDFAALLRQEKIDLEALMLCSDLDLRSISVPLGPRKKILGAVRRRRQAMERPPALEDTEL
chain 2: MDRKVAREFRHKVDFLIENDAEKDYLYDVLRMYHQTMDVAVLVGDLKLVINEPSRLPLFDAIRPLIPLKHQVEYDQLTPRRSRKLKEVRLDRLHPEGLGLSVRGGLEFGCGLFISHLIKGGQADSVGLQVGDEIVRINGYSISSCTHEEVINLIRTKKTVSIKVRHIGLIPVKSSPDEPLTWQYVDQFVSESGGVRGSLGSPGNRENKEKKVFISLVGSRGLGCSISSGPIQKPGIFISHVKPGSLSAEVGLEIGDQIVEVNGVDFSNLDHKEAVNVLKSSRSLTISIVAAAGRELFMTDR
notes: SANS (USH1G), residues 300-461 of UniProt Q495M9; as m40; Harmonin-a1 (USH1C), human, residues 1-301 of UniProt Q9Y6N9-1; as m30; also called ^YFPSANS_(CEN-PBM)+NPDZ1.PDZ2; source: purified E. coli proteins mixed (saturating NPDZ1.PDZ2); not shown: YFP, N-terminal, kept

Kd [3]: 11.3 µM | stoichiometry N (SANS_(CEN-PBM)): 1
B5: Harmonin NPDZ1 (non-fluorescent, as used in MST and SEC-MALS) (domain or fragment, human, UniProt Q9Y6N9-1 1-197, looked up)
chain: MDRKVAREFRHKVDFLIENDAEKDYLYDVLRMYHQTMDVAVLVGDLKLVINEPSRLPLFDAIRPLIPLKHQVEYDQLTPRRSRKLKEVRLDRLHPEGLGLSVRGGLEFGCGLFISHLIKGGQADSVGLQVGDEIVRINGYSISSCTHEEVINLIRTKKTVSIKVRHIGLIPVKSSPDEPLTWQYVDQFVSESGGVRG
notes: Harmonin-a1 (USH1C), human, N-terminal domain and PDZ1, residues 1-197 of UniProt Q9Y6N9-1; source: E. coli BL21 (DE3) Rosetta, purified (Glutathione Sepharose 4B, size-exclusion chromatography)
